# Source: patent US20240270874A1 (JIANGSU HENGRUI PHARMACEUTICALS, published 2024)
# T1: cynomolgus monkey KLB on CHOK1-cynoKLB cells (cynomolgus monkey, UniProt A0A2K5WB58 1-1044)
# T1 construct: whole, on cells; also called monkey KLB antigen
# T1 sequence: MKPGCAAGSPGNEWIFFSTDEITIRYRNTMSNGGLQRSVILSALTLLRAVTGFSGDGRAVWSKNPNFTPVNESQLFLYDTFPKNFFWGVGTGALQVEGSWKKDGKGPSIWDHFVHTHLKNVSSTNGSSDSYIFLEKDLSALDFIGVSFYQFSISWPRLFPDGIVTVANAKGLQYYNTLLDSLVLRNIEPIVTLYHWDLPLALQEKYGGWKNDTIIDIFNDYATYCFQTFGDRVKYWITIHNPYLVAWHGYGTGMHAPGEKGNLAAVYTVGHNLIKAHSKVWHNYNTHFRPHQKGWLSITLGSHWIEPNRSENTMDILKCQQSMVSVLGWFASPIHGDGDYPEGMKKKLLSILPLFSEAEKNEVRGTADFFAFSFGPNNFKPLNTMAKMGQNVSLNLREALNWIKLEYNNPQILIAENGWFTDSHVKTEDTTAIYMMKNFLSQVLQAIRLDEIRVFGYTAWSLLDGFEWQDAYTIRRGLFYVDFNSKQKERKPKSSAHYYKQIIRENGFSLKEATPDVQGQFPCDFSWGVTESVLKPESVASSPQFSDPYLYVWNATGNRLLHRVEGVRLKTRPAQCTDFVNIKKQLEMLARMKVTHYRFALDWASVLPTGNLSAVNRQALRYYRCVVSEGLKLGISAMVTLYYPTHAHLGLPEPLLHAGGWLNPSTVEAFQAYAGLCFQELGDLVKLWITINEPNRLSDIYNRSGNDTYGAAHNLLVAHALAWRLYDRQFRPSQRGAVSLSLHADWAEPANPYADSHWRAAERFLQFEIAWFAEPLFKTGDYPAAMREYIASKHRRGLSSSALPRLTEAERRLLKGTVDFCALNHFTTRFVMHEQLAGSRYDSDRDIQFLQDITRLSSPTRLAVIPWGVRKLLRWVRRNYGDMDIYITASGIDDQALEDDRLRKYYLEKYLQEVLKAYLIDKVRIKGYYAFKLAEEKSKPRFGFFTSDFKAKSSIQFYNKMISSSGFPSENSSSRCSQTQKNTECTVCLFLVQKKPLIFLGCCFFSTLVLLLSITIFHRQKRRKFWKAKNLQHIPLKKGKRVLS
# T2: hKLB (R&D, Cat. # 5889-KB) (human, UniProt Q86Z14 53-997, limits assumed)
# T2 construct: bought soluble protein; also called KLB protein; human KLB
# T2 sequence (looked up): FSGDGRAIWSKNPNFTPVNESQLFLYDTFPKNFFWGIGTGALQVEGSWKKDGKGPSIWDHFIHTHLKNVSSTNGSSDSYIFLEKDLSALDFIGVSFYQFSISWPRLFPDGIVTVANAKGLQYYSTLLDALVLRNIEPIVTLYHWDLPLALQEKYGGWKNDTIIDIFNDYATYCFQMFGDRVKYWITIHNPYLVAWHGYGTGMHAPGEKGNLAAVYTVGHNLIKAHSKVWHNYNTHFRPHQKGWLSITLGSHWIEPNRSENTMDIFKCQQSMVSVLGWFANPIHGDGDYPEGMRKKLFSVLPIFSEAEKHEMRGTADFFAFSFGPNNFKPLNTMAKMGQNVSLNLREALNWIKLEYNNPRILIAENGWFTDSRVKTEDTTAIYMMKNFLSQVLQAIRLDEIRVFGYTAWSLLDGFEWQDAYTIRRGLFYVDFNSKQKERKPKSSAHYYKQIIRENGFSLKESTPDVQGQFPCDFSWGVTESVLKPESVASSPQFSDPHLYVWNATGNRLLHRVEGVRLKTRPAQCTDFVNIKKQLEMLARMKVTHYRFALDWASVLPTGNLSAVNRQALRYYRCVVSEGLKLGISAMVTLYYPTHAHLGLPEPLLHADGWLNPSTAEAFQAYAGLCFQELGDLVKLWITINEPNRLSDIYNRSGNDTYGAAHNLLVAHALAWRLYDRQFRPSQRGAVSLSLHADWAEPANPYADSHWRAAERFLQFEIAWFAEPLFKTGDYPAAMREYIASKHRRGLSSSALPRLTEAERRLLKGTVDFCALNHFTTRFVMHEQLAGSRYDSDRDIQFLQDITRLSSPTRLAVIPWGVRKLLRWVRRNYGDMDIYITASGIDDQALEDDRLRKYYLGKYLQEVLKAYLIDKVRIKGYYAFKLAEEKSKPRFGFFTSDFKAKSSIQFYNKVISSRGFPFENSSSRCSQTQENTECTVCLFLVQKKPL
# B1: hAb-23 (antibody, human IgG1, kappa, L234A L235A, V domains shown)
# VH: QVQLVQSGAEVKKPGSSVKVSCKASGGTFSSYAISWVRQAPGQGLEWMGGIIPIFGTANYAQKFQGRVTITADESTSTAYMELSSLRSEDTAVYYCARELVSYYYGMDVWGQGTMVTVSS
# VL: not shown
# notes: from a human natural phage library; human IgG1 (L234A, L235A) / kappa; also called fully human antibody hAb-23
# B2: hAb99-13 (antibody, human IgG1, kappa, L234A L235A, V domains shown)
# VH: EVQLVQSGAEVKKPGASVKVSCKASGYTFTNYGINWVRQAPGQRLEWMGYIYIGNVDIEYNAKFKGRVTITSDTSASTAYMELSSLRSEDTAVYYCARGRGLGHFDVWGQGTTVTVSS
# VL: DIQMTQSPSSLSASVGDRVTITCRASKSISKFLAWFQQKPGKTNKLLIYSGSTLQSGVPSRFSGSGSGTDFTLTISSLQPEDFATYYCQQHNEYPWTFGGGTKVEIKR
# notes: human IgG1 (L234A, L235A) / kappa
# B3: hAb18-8 (antibody, human IgG1, kappa, L234A L235A, V domains shown)
# VH: EVQLVQSGAEVKKPGASVKVSCKASGYTFTDYAMHWVRQAPGQRLEWMGVISTYSGTTNYNQNFKGRVTITVDKSASTAYMELSSLRSEDTAVYYCARSGPLDYWGQGTTVTVSS
# VL: ENVLTQSPDFQSVTPKEKVTITCRATSSVSSSYLHWYQQKPDQSPKLWIYSTSQLASGVPSRFSGSGSGTDYTLTINSLEAEDAATYYCQQYSGYPLTFGQGTKLEIKR
# notes: as for B2
# Key:
# human FGFR1c on cells = human FGFR1c on cells (human, UniProt P11362 22-822); assay: cell-based or functional assay
# [1] = target: T1, cynomolgus monkey KLB on CHOK1-cynoKLB …; assay: flow cytometry on CHOK1-cynoKLB cells
# Experimental: The binding ability of the antibodies for CHOK1 cell strains CHOK1-hKLB and CHOK1-cynoKLB overexpressing human KLB and monkey KLB (see Example 1 for specific preparation procedure), respectively, was detected by flow cytometry. The specific procedure was as follows: the above cells were cultured in 10% FBS-containing IMDM medium and incubated in an incubator at 37° C. and 5% CO₂ for 2 days. The cells were then added to a cell plate at 1×10⁵ cells per well, centrifuged at 300 g for 5 min, and then washed once with 1% BSA. The antibody diluted in gradient was added to the cell plate at 100 μL per well, and the mixture was incubated at 4° C. for 1 h and washed once with 1% BSA. The diluted (1:400) APC-goat anti-human IgG Fc fluorescent secondary antibody was added at 100 μL per well, and the resulting mixture was incubated at 4° C. for 1 h. The plate was washed three times with 1% BSA, PBS was added at 100 μL per well, and the plate was read.
# [2] = target: T2, hKLB (R&D, Cat. # 5889-KB); assay: BLI (Octet HTX) competition; KLB+antibody premix on SA sensor; competitor: immobilised Bio-FGF19
# Experimental: (§1) Bio-FGF21/Bio-FGF19 (obtained by subjecting FGF21 and FGF19 to Biotin labeling with a Biotin Labeling Kit-NH2 (available from DOJINDO Molecular technologies Inc., LK03), wherein FGF21 is set forth in SEQ ID NO: 76 and FGF19 is set forth in SEQ ID NO: 77) was immobilized to an SA sensor (incubation for 80 s) at a concentration of 2 μg/mL, and the sensor was then transferred to a sample well containing KLB (R&D, 5889-KB-1 mg) or containing KLB+antibody premix (pre-incubation for at least 15 min) for 180 s of binding. The reaction signals were detected in real time using the ForteBio OCTET HTX instrument to obtain a binding curve.
# [3] = target: T2, hKLB (R&D, Cat. # 5889-KB); assay: BLI (Octet HTX) competition; KLB+antibody premix on SA sensor; competitor: immobilised Bio-FGF21
# Experimental: as §1
# Sequence of human FGFR1c on cells (P11362 22-822): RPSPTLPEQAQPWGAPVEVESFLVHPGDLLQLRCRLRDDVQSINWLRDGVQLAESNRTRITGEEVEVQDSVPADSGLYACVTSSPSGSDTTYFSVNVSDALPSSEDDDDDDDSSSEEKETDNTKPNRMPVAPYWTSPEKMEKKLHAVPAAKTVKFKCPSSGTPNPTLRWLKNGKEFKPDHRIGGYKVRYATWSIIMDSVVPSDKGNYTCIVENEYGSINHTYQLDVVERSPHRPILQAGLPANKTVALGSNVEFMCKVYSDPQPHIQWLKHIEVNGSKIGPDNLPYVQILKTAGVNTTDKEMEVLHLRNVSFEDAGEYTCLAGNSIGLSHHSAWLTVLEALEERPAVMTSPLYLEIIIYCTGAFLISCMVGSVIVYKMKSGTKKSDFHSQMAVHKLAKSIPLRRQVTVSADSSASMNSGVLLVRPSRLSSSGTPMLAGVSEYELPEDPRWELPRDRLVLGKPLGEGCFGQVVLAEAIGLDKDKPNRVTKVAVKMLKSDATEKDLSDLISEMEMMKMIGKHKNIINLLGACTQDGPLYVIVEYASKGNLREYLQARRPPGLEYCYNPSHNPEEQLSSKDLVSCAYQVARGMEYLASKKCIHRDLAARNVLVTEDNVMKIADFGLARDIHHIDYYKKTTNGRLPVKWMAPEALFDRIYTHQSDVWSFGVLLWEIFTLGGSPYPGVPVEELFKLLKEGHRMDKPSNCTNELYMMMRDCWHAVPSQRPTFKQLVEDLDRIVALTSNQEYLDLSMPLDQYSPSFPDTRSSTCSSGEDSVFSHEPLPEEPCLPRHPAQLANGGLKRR
Binder,"Activation fold, SRE-Luc2P reporter in HEK293-hFGFR1c cells (human FGFR1c on cells)",EC50 [1],"binding signal of KLB to Bio-FGF19, % of KLB alone [2]","binding signal of KLB to Bio-FGF21, % of KLB alone [3]"
B1,0.86 fold,0.13 nM,99%,113%
B2,0.77 fold,0.27 nM,99%,108%
B3,0.81 fold,1.9 nM,101%,108%
